The results in this text go back to patent publication US20060051737A1 (ROCKEFELLER UNIVERSITY, published 2006).

For this test, the target named is T1, human Rif1 (human, UniProt Q5UIP0 1-2472).
T1 construct: Endogenous protein in extracts or fixed cells of human cell lines (e.g. HeLa); It is seen as a >250 kDa polypeptide; the predicted protein has 2472 amino acids and 274 kDa; also called hRif1
Description: co-immunoprecipitation.

T1 sequence (Q5UIP0 other isoform, or with tags, fused parts or gaps limits assumed): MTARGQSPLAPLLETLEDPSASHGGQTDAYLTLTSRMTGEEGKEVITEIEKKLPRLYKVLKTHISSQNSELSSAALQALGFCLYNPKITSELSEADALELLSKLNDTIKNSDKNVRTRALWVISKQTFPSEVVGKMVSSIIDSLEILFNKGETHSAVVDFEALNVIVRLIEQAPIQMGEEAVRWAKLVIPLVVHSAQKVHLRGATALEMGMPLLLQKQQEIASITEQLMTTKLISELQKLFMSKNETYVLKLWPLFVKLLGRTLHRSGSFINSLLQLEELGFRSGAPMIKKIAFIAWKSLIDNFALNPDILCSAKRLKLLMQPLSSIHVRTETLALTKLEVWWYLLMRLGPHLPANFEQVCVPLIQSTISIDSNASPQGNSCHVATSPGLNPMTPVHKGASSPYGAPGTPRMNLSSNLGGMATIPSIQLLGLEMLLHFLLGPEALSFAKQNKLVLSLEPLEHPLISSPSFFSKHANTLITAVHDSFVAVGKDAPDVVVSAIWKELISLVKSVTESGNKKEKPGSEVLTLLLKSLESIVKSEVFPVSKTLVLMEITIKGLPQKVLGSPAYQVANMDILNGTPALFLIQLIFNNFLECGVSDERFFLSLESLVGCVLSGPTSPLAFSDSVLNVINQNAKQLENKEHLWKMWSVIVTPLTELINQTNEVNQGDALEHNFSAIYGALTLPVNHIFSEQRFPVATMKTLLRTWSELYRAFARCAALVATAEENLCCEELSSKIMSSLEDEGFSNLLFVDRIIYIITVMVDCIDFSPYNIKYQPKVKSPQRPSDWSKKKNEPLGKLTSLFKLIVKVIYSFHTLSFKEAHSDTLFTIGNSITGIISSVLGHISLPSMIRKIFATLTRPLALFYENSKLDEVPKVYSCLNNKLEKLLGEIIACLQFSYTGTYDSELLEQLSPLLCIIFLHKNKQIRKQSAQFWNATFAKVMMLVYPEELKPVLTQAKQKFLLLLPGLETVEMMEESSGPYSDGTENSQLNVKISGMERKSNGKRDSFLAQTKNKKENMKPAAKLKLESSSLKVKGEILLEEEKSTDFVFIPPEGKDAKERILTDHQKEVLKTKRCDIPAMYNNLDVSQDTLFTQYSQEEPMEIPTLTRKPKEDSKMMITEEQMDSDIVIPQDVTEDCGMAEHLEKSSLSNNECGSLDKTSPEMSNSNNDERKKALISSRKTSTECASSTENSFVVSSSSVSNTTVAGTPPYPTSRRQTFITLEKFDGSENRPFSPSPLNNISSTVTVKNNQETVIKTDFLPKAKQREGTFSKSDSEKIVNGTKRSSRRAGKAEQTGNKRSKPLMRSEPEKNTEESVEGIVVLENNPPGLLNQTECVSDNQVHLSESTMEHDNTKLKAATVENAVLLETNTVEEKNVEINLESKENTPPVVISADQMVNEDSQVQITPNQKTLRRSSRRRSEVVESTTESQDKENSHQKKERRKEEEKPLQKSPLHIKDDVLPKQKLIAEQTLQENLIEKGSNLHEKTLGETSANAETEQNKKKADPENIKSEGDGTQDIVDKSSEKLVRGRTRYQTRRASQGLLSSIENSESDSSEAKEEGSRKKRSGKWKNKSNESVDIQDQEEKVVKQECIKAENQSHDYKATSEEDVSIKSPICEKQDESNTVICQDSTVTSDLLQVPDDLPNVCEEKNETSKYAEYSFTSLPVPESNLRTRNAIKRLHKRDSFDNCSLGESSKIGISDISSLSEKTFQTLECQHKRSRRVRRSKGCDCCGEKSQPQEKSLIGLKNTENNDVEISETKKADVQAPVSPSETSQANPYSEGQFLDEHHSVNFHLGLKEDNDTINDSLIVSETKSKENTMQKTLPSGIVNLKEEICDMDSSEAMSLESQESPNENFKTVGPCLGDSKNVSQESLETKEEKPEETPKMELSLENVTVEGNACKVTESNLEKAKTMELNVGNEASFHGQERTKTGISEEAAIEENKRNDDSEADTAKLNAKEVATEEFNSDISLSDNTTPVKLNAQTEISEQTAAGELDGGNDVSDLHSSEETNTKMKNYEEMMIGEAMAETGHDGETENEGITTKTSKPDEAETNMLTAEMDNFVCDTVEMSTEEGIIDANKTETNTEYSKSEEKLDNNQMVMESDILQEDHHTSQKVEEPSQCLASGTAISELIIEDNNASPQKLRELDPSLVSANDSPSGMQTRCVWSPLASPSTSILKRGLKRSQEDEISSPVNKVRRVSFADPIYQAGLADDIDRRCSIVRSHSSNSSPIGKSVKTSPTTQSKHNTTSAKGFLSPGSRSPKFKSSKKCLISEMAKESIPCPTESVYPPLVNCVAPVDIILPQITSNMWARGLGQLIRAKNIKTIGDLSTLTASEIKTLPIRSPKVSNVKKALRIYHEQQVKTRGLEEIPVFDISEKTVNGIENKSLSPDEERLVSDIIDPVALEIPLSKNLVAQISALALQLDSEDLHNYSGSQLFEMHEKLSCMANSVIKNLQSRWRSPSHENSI

B1: TRF2 (other, human, UniProt Q15554 1-542, looked up)
chain: MAAGAGTAGPASGPGVVRDPAASQPRKRPGREGGEGARRSDTMAGGGGSSDGSGRAAGRRASRSSGRARRGRHEPGLGGPAERGAGEARLEEAVNRWVLKFYFHEALRAFRGSRYGDFRQIRDIMQALLVRPLGKEHTVSRLLRVMQCLSRIEEGENLDCSFDMEAELTPLESAINVLEMIKTEFTLTEAVVESSRKLVKEAAVIICIKNKEFEKASKILKKHMSKDPTTQKLRNDLLNIIREKNLAHPVIQNFSYETFQQKMLRFLESHLDDAEPYLLTMAKKALKSESAASSTGKEDKQPAPGPVEKPPREPARQLRNPPTTIGMMTLKAAFKTLSGAQDSEAAFAKLDQKDLVLPTQALPASPALKNKRPRKDENESSAPADGEGGSELQPKNKRMTISRLVLEEDSQSTEPSAGLNSSQEAASAPPSKPTVLNQPLPGEKNPKVPKGKWNSSNGVEEKETWVEEDELFQVQAAPDEDSTTNITKKQKWTVEESEWVKAGVQKYGEGNWAAISKNYPFVNRTAVMIKDRWRTMKRLGMN
As to B1, the binding result is recorded as “no binding”.

B2: Rap1 (other, human, UniProt Q9NYB0 2-399, looked up)
chain: AEAMDLGKDPNGPTHSSTLFVRDDGSSMSFYVRPSPAKRRLSTLILHGGGTVCRVQEPGAVLLAQPGEALAEASGDFISTQYILDCVERNERLELEAYRLGPASAADTGSEAKPGALAEGAAEPEPQRHAGRIAFTDADDVAILTYVKENARSPSSVTGNALWKAMEKSSLTQHSWQSLKDRYLKHLRGQEHKYLLGDAPVSPSSQKLKRKAEEDPEAADSGEPQNKRTPDLPEEEYVKEEIQENEEAVKKMLVEATREFEEVVVDESPPDFEIHITMCDDDPPTPEEDSETQPDEEEEEEEEKVSQPEVGAAIKIIRQLMEKFNLDLSTVTQAFLKNSGELEATSAFLASGQRADGYPIWSRQDDIDLQKDDEDTREALVKKFGAQNVARRIEFRKK
notes: also called human Rap1
Turning to B2, the binding result is recorded as “no binding”.

B3: TRF1 (other, human, UniProt P54274 2-439, looked up)
chain: AEDVSSAAPSPRGCADGRDADPTEEQMAETERNDEEQFECQELLECQVQVGAPEEEEEEEEDAGLVAEAEAVAAGWMLDFLCLSLCRAFRDGRSEDFRRTRNSAEAIIHGLSSLTACQLRTIYICQFLTRIAAGKTLDAQFENDERITPLESALMIWGSIEKEHDKLHEEIQNLIKIQAIAVCMENGNFKEAEEVFERIFGDPNSHMPFKSKLLMIISQKDTFHSFFQHFSYNHMMEKIKSYVNYVLSEKSSTFLMKAAAKVVESKRTRTITSQDKPSGNDVEMETEANLDTRKSVSDKQSAVTESSEGTVSLLRSHKNLFLSKLQHGTQQQDLNKKERRVGTPQSTKKKKESRRATESRIPVSKSQPVTPEKHRARKRQAWLWEEDKNLRSGVRKYGEGNWSKILLHYKFNNRTSVMLKDRWRTMKKLKLISSDSED
As to B3, the binding result is on record as “no binding”.
